Results as given in the supplement of paper PMC9170038.

Tested on: MS2 coat protein
Assay: apparent KD of MS2 coat protein; designed switch direction (-1 OFF switch, 1 ON switch): -1; higher = weaker reporter binding
Outline: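 Normalised cluster fluorescence was curve-fitted, and each design's median over clusters is its apparent KD. Before this, SNAP-549-labelled MS2 coat protein was titrated from 0.7 or 1.5 nM, doubling to 3 µM, over RNA switches transcribed on Illumina chips by stalled E. coli RNA polymerase. Titrations had no input, 200 uM small-molecule ligand, or an oligonucleotide input, and steps lasted 0.8–1.5 h (lowest) to 10–20 min (highest).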

[1] = Eterna round: R95, input ligand: FMN 200 uM
[2] = Eterna round: R95, input ligand: microRNA oligo, concentration not stated
[3] = Eterna round: R95, input ligand: none
[4] = input ligand: microRNA oligo, concentration not stated

Sequence | apparent KD of MS2 coat protein [2] [nM] | apparent KD of MS2 coat protein (input ligand: FMN 200 uM) [nM] | apparent KD of MS2 coat protein (input ligand: none) [nM] | also measured
GUUAAACAUGAGGAUCACCCAUGUAAGGAUAUGCUGCGGUCGCGAUGAAGUGACUGCAGCAGAAGGUACAAAUG [Mat - Mod of JL D59] (puzzle: Exclusion 1) | 92 | – | – | apparent KD of MS2 coat protein [1]: 89.8 nM; apparent KD of MS2 coat protein [3]: 102 nM
GUUAAACAUGAGGAUCACCCAUGUAAGGAUAUGCUGCGGUCGCGAUGAAGUGACUGCAGCAGAAGGUACAAUUG [Mat - Mod of JL D52] (puzzle: Exclusion 1) | 88.8 | – | – | –
GUUAAACAUGAGGAUCACCCAUGUAAGGAUAUGCUGCGGUCGCGCUGACGUGACUGCAGCAGAAGGUACAAUUG [Mat - Mod of JL D51] (puzzle: Exclusion 1) | 64.8 | – | – | –
GUUAACGAAGAGGAUAUAUGAUAUCAAAGCUUCAUAGAAGGCUUCACAUGAGGAUCACCCAUGUGAUCUUCAAU [jl-ex6-4.08 ViennaUCT mod] (Eterna round: R97, puzzle: Exclusion 6) | – | 232 | 42.6 | –
GUUAACGAAGAGGAUAUAUGAUAUCAAAGCUUCAUAGAAGGCUUCACAUGAGGAUCACCCAUGUGAUCUUCUUU [jl-ex6-4.09 ViennaUCT mod] (Eterna round: R97, puzzle: Exclusion 6) | – | 44.2 | 15.1 | –
GUUAAGGUAGGAUAUACGAUAAUAUAGGGUAGAUAUAUAACACAUGAGGAUCACCCAUGUAGAAGGACCAAGUG [Mat - Exclusion 2 - Mod of my Tesla design - D60] (puzzle: Exclusion 2) | 43.4 | – | – | –
GUUAAGUGAGGAUAUGGUGAGUAGUGCCUGAGCGCUGCUCACCAGAAGGCACAUGAGGAUCACCCAUGUAUAGC [JL-ex4-2.06 denovo] (puzzle: Exclusion 4) | 15.2 | – | – | –
GUUAGACAUGAGGAUCACCCAUGUGAGGAUAUGAUGCGAAUAAUGAAUGAAGAAAGCAUCAGAAGGCACAUAUG [Mat - Mod of Hyphema D29] (puzzle: Exclusion 1) | 296 | – | – | apparent KD of MS2 coat protein [1]: 375 nM; apparent KD of MS2 coat protein [3]: 221 nM
GUUAGUAUCUAGGAUAUCUAGUACAUAGUAUCUAGAGAAGGAGAUACAUGAGGAUCACCCAUGUUCUGUGUUCU [Exclusion 6 - 1:c] (puzzle: Exclusion 6) | 21.9 | – | – | –
GUUAGUUAAGGAUAUACAGGGAGCUGCGGCGUCUCGCCGCAACAUGAGGAUCACCCAUGUAGAAGGUAGCCGUU [JL ViennaUCT Enbibi mod 8] (puzzle: Exclusion 2) | 53.2 | – | – | –
GUUAGUUAAGGAUAUACUGGGAGCUGCGGCGUCUCGCCGCAACAUGAGGAUCACCCAUGUAGAAGGUGGCCAUU [JL ViennaUCT Enbibi mod 4] (puzzle: Exclusion 2) | 640 | – | – | –
GUUAUCGCAGGAUAUUAGUACUUGUACAUGAGGAUCACCCAUGUUUAUUGGGACUAAGAAUAAGAAGGGCGAUGAA [JR_Ex5_Sub004] (Eterna round: R97, puzzle: Exclusion 5) | – | 21 | 17.8 | –
GUUCAACAUGAGGAUCACCCAUGUCAGGAUAUGCGAAUUUCAUCAAAAGAUGAAAUUUGCAGAAGGGACUGAAC [Omei Ex1 A30] (Eterna round: R97, puzzle: Exclusion 1) | – | 30.5 | 27.2 | –
GUUCUGACAGGAUAUACAUGAGGAUCACCCAUGUGCCCUUAGAGAUGCAAAGCAUCUCGUAGAAGGGUCUGAAC [Omei Ex3 Model Bachelor's Dilema v28] (Eterna round: R97, puzzle: Exclusion 3) | – | 38.5 | 31.6 | –
GUUGUACAUGAGGAUCACCCAUGUCAGGAUAUCCACCUCAGAAAGUAUACAGGAUUGUGGAGAAGGGACAUUAA [EX1 C.18] (Eterna round: R97, puzzle: Exclusion 1) | – | 56 | 48.5 | –
GUUGUUACUGAGGAUAUUAUUUUAUUCGAUUGAUAAGAAGGCAGUACAUGAGGAUCACCCAUGUGGGUAGUUAG [Polaris21] (Eterna round: R97, puzzle: Exclusion 6) | – | 270 | 338 | –
GUUGUUUAUGUAGGAUAUGCCAGGCGAGCCUAAGCAGAAGGACAUGAGGAUCACCCAUGUAUUGCGGUCUGCGUUCAGAUCGCU [salish99_ExNG1_r4_017] (Eterna round: R96, puzzle: Exclusion NG 1) | – | 63.5 | 23.7 | apparent KD of MS2 coat protein [4]: 18.3 nM
GUUGUUUAUGUAGGAUAUGCCUGGCGUGCCUUUGCAGAAGGACAUGAGGAUCACCCAUGUAACAUGAGGCUCACCCAUGUCGCU [salish99_ExNG1_r04_108] (Eterna round: R96, puzzle: Exclusion NG 1) | – | 397 | 296 | apparent KD of MS2 coat protein [4]: 159 nM
GUUUAAUUAGGAUAUGCAAGCGGUGUUAGAAAAGUAUCCAAACAUGAGGAUCACCCAUGUAGAAGGAGUUGUUG [Eternabot (L2) Solution 59] (Eterna round: R97, puzzle: Exclusion 2) | – | 28.5 | 30.2 | –
GUUUACAAGCUAAGAUCCUACAUGAGGAUCACCCAUGUGGUCCGGUGACGUGAGUCACCGGACUUAGCUCGUCUUGG [salish99_S_TOV1_R5_090] (Eterna round: R97, puzzle: Sensor, turn-off variant 1) | – | 66 | 66.7 | –
GUUUAGUGAGGAUAUGUGGCUUCGAUCGUGCGCGGUCUGCUACAGAAGGCACAUGAGGAUCACCCAUGUUCCUC [salish99_ex4_r4_308] (Eterna round: R97, puzzle: Exclusion 4) | – | 579 | 123 | –
GUUUCACAUGAGGAUCACCCAUGUGAGGAUAUGGACUUUUUAGUAAUAAUUGUUGGGUUCAGAAGGCGCGUGAU [JR_Exc1_Sub005] (Eterna round: R97, puzzle: Exclusion 1) | – | 53.1 | 44.7 | –
GUUUCGUGAGGAUAUGUGGCUUCGAUCGUGCGAAGAAGGCUACAGAAGGCACAUGAGGAUCACCCAUGUUCGUC [salish99_ex4_r4_227] (Eterna round: R97, puzzle: Exclusion 4) | – | 152 | 42.1 | –
GUUUGACAUGAGGAUCACCCAUGUGAGGAUAUCGGCUGGUACGUGUUGGCUGGCAUCUCGAGAAGGCACAUAGG [Exclusion 1 V58] (puzzle: Exclusion 1) | 109 | – | – | –
GUUUGACAUGAGGAUCACCCAUGUGAGGAUAUCGUCUGGUACGUGUUGGCUGGCAUCUCGAGAAGGCGCAUAGG [Exclusion 1 V57] (puzzle: Exclusion 1) | 49.7 | – | – | apparent KD of MS2 coat protein [1]: 75.9 nM; apparent KD of MS2 coat protein [3]: 64.9 nM
GUUUGAUUAGGAUAUACAUGAGGAUCACCCAUGUGUCCCAGUUUAGAAAUAGACAAAAGUAGAAGGGAUUAGAU [Starry 2] (Eterna round: R97, puzzle: Exclusion 3) | – | 37.8 | 45.8 | –
GUUUGCGCAGGAUAUACUCCUCCAUGUUAAGAGCAUGUGCGACAUGAGGAUCACCCAUGUAGAAGGGCGAGACG [Eternabot (L2) Solution 8] (Eterna round: R97, puzzle: Exclusion 2) | – | 194 | 345 | –
